B1: TIA1 (parent)
chain: TYECRCIGEEKEMWNFGEKYARF
B2: SOAT1 (parent)
chain: GVLILFLTFFAFLHCWLNAFAEML

Variants of: B1
Experiment: protein stability index of a GFP-peptide fusion (GPS, HEK-293T) (PSI 1-6); higher = more stable
Conditions: c terminus: native
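Also: lentivirally expressed fusions sorted by FACS into six bins by GFP to DsRed ratio, PSI derived from sequencing read proportions per bin multiplied by bin number.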

Protein stability index: each site, then its substitutions
R22: M 1.51, K 3.59, E 3.2, S 2.29, W 1.6, P 1.92, F 2.23, Q 2.92, C 1.36, D 3.77, A 1.79, Y 1.81, L 1.01, T 2.49, G 2.63, V 2.84, N 3.1, H 2.82
Y20: K 3.52, M 3.19, L 1.54, N 2.26, S 3.24, T 2.61, P 1.11, W 2.31, I 1.7, V 3.04, Q 4
F23: T 1.87, D 3.5, Y 2.18, L 1.29, G 2.11, A 3.29, C 1.61, R 1.52, I 1.59, W 2.64, M 2.54, K 3.29, Q 1.48, H 1.83, S 2.2, N 1.87, E 3.42, P 2.69
A21: I 2.72, P 3.79, D 3.1, Q 2.04, L 2.19, R 2.71, V 2.37, H 3.06, S 1.97, K 2.8, Y 1.89, M 1.99, C 1.89, E 3.16, G 2.11, T 1.44, F 2.02, W 2.42

Variants of: B2
Experiment: as above
Conditions: c terminus: a fixed tail appended

Protein stability index, by site and new letter:
C15: S 1.83, V 2, G 2.01, F 2.27, Q 3.3, Y 2.79, A 2.75, T 2.47, R 1.95, N 3.02, L 2.97, D 1.44, E 2.28, P 2.81, M 3.37, I 2.55, K 3.47, W 3.12, H 1.99
L3: M 3.1, P 3.1, V 3.82, D 2.13, G 2.85, W 3.13, S 3.06, R 2.98, F 2.69, H 2.34, T 3.86, K 1.94, C 3.65, E 2.74, Y 2.94, A 2.52
V2: R 3.5, K 2.31, S 1.98, C 2.05, P 1.74, I 2.62, T 2.72, H 2.35, W 2.95, Q 2.56, M 2.26, N 1.42, D 2.14, A 2.01, E 2.17, Y 2.31, L 1.03, F 2.32
F12: Q 2.71, A 2.65, E 3.48, K 3.54, T 2.42, G 2.81, H 2.43, R 2.64, S 3.35, I 2.6, Y 2.75, M 2.87, D 2.27, L 2.09, V 1.84, N 3, C 3.26, W 2.92
A11: I 3.38, K 2.37, V 1.88, R 3.9, S 2.69, P 3.29, D 2.82, W 1.64, T 3.07, L 1.75, G 1.15, M 3.5, Y 2.09, H 2.31, Q 2.55, F 2.48, C 1.84
G1: W 1.61, H 3.67, C 2.93, S 4.28, Q 2.35, A 3.39, I 3.7, V 3.18, N 3.26, K 2.23, P 3.53, R 4.47, E 3.49, Y 2.49, F 2.2, T 3.35, M 2.94
L5: I 2.23, M 1.72, C 2.84, E 3.38, V 1.91, T 2.34, G 2.13, Y 3.59, W 2.17, N 3.7, A 2.42, Q 3.75, D 4.32, R 2.57, H 3.32, K 2.87
L13: W 3.93, K 3.57, N 3.07, R 2.96, S 3.65, I 2.17, E 3.16, T 3.62, V 2.57, F 2.74, C 2.83, A 4.05, G 2.86, Y 2.48, D 3.39, P 2.6, H 2.45, Q 4.15
L7: C 1.91, R 3.36, I 2.4, W 4.58, Q 2.92, K 3.37, N 3.81, F 1.85, D 2.11, V 2.56, A 3.84, G 2.95, E 3.09, M 2.38, P 2.68
H14: K 2.17, Y 2.09, F 1.52, G 2.45, D 3.15, M 2.07, Q 2.47, L 1.87, T 2.06, V 1.48, R 2.68, W 2.17, C 2.17, P 2.06, S 2.02, A 2.22, I 1.95, E 2.94
W16: Q 2.55, A 2, K 2.19, N 2.59, G 3.64, M 3.65, L 3.2, I 2.96, E 3.24, D 2.4, T 3.45, P 2.19, C 2.68, H 3.94, F 3.85, S 3.04
T8: Q 1.69, F 3.81, S 3.41, L 2.04, C 1.01, E 2.8, A 3.88, Y 3.57, V 2.33, N 2.38, D 2.71, M 2.6, I 2.42, P 3.34, G 2.61, W 1.47, H 3.09
F10: Y 3.58, K 2.35, C 2.63, Q 4.33, V 2.75, I 2.54, R 3.84, A 3.62, T 3.52, H 2.17, N 3.82, L 2.24, S 2.2, M 1.67, E 2.27
F9: A 1.36, I 1.34, V 3.43, C 3.31, T 2.68, P 3.94, G 4.01, K 3.13, Q 2.33, E 3.8, M 3.56, W 3.04, D 3.34, N 2.46, S 1.94, Y 2.83, H 4.54
I4: K 1.43, N 3.78, Q 4.98, M 3.03, V 2.92, L 2.76, D 1.73, W 2.43, P 2.26, R 3.74, A 2.03, Y 3.33, S 2.66, F 1.75, E 2.23, C 2.42, G 4.32, H 1.85, T 3.27
F6: I 2.63, Y 3.06, M 1.35, D 1.78, G 1.72, S 2.73, R 3.83, H 2.63, V 3.25, P 2.63, T 2.02, A 3.95, Q 3.85
